Assay results as given in US20230189818A1, “RNA-BASED CONTROL OF BOTRYTIS” (priority 2021, published 2023).

Experiments:
[1] = system: Botrytis cinerea B05.10 isolate; assay: Greenhouse whole plant assay (tomato 'Lanai', disease severity); assay type: in vivo; details: final rating day (rating #3)
Procedure: Plant Tissue: Tomato seedlings, variety “Lanai”, were seeded then thinned to one plant per pot in an 18 cell tray. […] Plants were grown at a 23° C./17° C. day/night temperature with 10 hours of light each 24-hour period. The RH was ambient and plants were fertilized two times a day every day except for Sunday when they received only water. Plants were grown using Fafard brand medium (70-80% sphagnum peat moss, perlite, vermiculite, dolomite limestone and watering agent) for the entire experiment.
Fungal culture. A Botrytis cinerea B05.10 isolate was maintained, and spores were harvested as previously described for detached leaf assays, except a grape juice additive was not used for inoculum preparation.
Treatment of plants. Whole tomato plants were treated ˜24 hours before inoculation using the spray booth. A 0.07% Silwet L-77 solution was used as a spreader and added for a 0.07% final volume in water (Silwet L-77 brand Phyto Technology Laboratories, S7777 Lot #14D7777001 F). The spray booth deck was set to 20″ above the plant canopy and a twinjet 8002EVS nozzle with 100 mesh filter placed into the spray mechanism. The spray boom was calibrated before treatment application with specs as follows: 50 GPA rate, 1.25 MPH speed, 6′ spray length, single pass, and at 45 psi to get a catch of 133 mL in 10 seconds (+/−6 mL). Each treatment was replicated ten times for each experimental run.
Inoculation. Plants were inoculated using a mist-o-matic applicator, which is pressurized by manual pumping. The inoculum suspension was poured into the mist-o-matic immediately before inoculation in the GH space. The containers were only filled half-way and inoculum was applied evenly to the surface of all foliage with even coverage.
Incubation. Plants were incubated inside of a 40″ tall humidity chamber supported by PVC pipe and covered in 3M translucent plastic. A humidifier was inside the chamber and set to low and continuous humidity (filled with tap water). The temperature was D:24-20° C./N:20-18° C. with 15 hours of light, of which 9 hours was with supplemental lighting. RH was ambient and watering occurred everyday by sub-irrigation with the bench being flooded for 10 minutes before draining.
Rating. Tomato plants were rated three times during the two-week experiment with rating starting four days post-inoculation and occurring every three to four days after the initial rating date. Plants were rated for the number of lesions and disease severity, which is the percentage of the plant that was symptomatic including necrotic lesions, pathogen sporulation, and chlorosis.
Data analysis. […] Percent disease severity (%DS) was determined by the percent area of the tomato foliage with symptoms including lesions, chlorosis, necrosis, and wilting. Disease severity was rated at three dates (Rating #) over the 12-day test period. Treatments were compared to the untreated, inoculated control and a chemical standard. Statistical analysis was done using SAS JMP version 13.2.1 with treatments compared to the untreated, inoculated control and a chemical standard using Tukey-Kramer and student's T tests.

[2] = system: Botrytis cinerea isolate (B05.10); assay: Detached leaf assay (tomato leaflets, lesion size); assay type: in vivo; details: five days post inoculation, vs untreated inoculated control
How it was run: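 Tomato (Brandywine) detached lateral leaflets were sprayed with treatment in 0.03% Silwet L-77 24 h before inoculation. Two 10 μL drops of 1×10^5 conidia/mL in 7% grape juice were applied per leaflet, which was then incubated at 23 °C, ~75% RH, 12/12 light. Lesion diameter was measured at 5 DPI against the untreated inoculated control, ten replicates.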

Botrytis cinerea conidia = assay: In vitro liquid-based assay (fungal biomass, 96-well plates, Cytation 5); assay type: cell-based; details: co-incubated with conidia for three days, vs untreated control
How it was run: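 Conidia (5000/mL stock) were co-incubated with dsRNA or control treatments in pH 6.0 minimal medium. Incubation ran 72 h at 23 °C, shaking at 120 rpm under continuous light. Fungal biomass was measured by brightfield imaging (8 slices per well, 2.5× lens) and expressed as average reduction versus control.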

[3] = 8 g ai/ha, two runs, three-week-old 'Lanai' tomato plant
[4] = 25 g ai/ha, two runs, three-week-old 'Lanai' tomato plant

Molecule | % control [1, 3] [%] | % control [1, 4] [%] | Average % Reduction in Lesion Size ([2]; 30 ppm) [%] | Average % Reduction in Lesion Size ([2]; 50 ppm) [%] | Average % Reduction in Biomass (Botrytis cinerea conidia; 25 ppm dsRNA) [%] | Average % Reduction in Biomass (Botrytis cinerea conidia; 150 ppm dsRNA) [%] | % control ([1]; 25 g ai/ha, three runs, four-week-old 'Lanai' tomato plant) [%]
GS686: dsRNA trigger targeting B. cinerea Bcrrp1 (XM_001550365.2); trigger SEQ ID NO 17, RNA 29, reverse complement 41 (nucleic acid, listed as Botrytis cinerea) sense: CCCCUCCACCCAAGCACCUUUCUACACCGGAUUCUGGGAAAUCAUGUCCAAAGAAUGGGAACGCAUUGAUGUGCUGCGCAUGGAGAAAUUCCUGCUGCUAGUGAGACGCUAUUUGGCAGCUGGUUUUGAGGUUGUGGUAUCCAGCUCUUCCGCACCUGCGGGAAAGAAAAACAAGACGAAAGCUUCGAAGAAAGUGAUUUCGGAAUCCGGAGAGCAGGUAUUAGAAGUCCUAUCUUCCAUUCCCUGUGGUUCGGGCCCCGAUGCGCAACGCACACCGAAUGGAAUGCGCUUCCACGUAAUCGAUAUCUGGAUCGACGAGCUUGAGAAACUGGGUGUGAUCGACGCAGCGAAGGAGAGUGAAGAGGGCGCUGAGAAAUUAGAGAAAUUACUGGAGCCGUUGAGGAAAUUGGGAAAGGAGAGCAUUAAUAAGACGGUCAGGAAUAAGUGUAAGGAGGC antisense: GCCUCCUUACACUUAUUCCUGACCGUCUUAUUAAUGCUCUCCUUUCCCAAUUUCCUCAACGGCUCCAGUAAUUUCUCUAAUUUCUCAGCGCCCUCUUCACUCUCCUUCGCUGCGUCGAUCACACCCAGUUUCUCAAGCUCGUCGAUCCAGAUAUCGAUUACGUGGAAGCGCAUUCCAUUCGGUGUGCGUUGCGCAUCGGGGCCCGAACCACAGGGAAUGGAAGAUAGGACUUCUAAUACCUGCUCUCCGGAUUCCGAAAUCACUUUCUUCGAAGCUUUCGUCUUGUUUUUCUUUCCCGCAGGUGCGGAAGAGCUGGAUACCACAACCUCAAAACCAGCUGCCAAAUAGCGUCUCACUAGCAGCAGGAAUUUCUCCAUGCGCAGCACAUCAAUGCGUUCCCAUUCUUUGGACAUGAUUUCCCAGAAUCCGGUGUAGAAAGGUGCUUGGGUGGAGGGG | 31 | 14 | 39.61 | 33.29 | 16 | 37 | 
GS728: dsRNA trigger targeting B. cinerea XM_024691746.1; trigger SEQ ID NO 18, RNA 30, reverse complement 42 (nucleic acid, listed as Botrytis cinerea) sense: CACAAGAAGCAUGGGGUAUGAAGAGAUAAGUUGUGGCUGGUGAACAACUAAAUCGACAUUUUCCGUCCCCACAGCACCUUUCGAACACUGAAUUCAAUUAAUUAUACACUGUUCCAGUAUCCACUUCCACUUCCACUCCCACAAAACAUACAAUACUACGAUAAUACGAUUUUACGAUAACGUCCAGCCUUGAGGACAACAAGUCAGAUGAAAAUCACGAGAUGGCAUUGUUUUUGAUGUUAGUAAAUGCUAUACCGACGGUAAUCGGCACUGCUGAAGCAUUAGAUGUUCAGAAGAAGGAAGAUUUGGCCCAGAAGCACAAGGCAAAGUUUUUCAUGACGGCGAAUUUUGCUUUGGAUGGAAAGGUUGCUCAUGAAAAAGAAUCACAGGUCGUCCUACGCGAUAACAGGAUGUACUUAAACCACCCAGAUGCGCCGAAAGAAGGACAUCGAUUUUGUGGUUACUAUUUCAUGUAUC antisense: GAUACAUGAAAUAGUAACCACAAAAUCGAUGUCCUUCUUUCGGCGCAUCUGGGUGGUUUAAGUACAUCCUGUUAUCGCGUAGGACGACCUGUGAUUCUUUUUCAUGAGCAACCUUUCCAUCCAAAGCAAAAUUCGCCGUCAUGAAAAACUUUGCCUUGUGCUUCUGGGCCAAAUCUUCCUUCUUCUGAACAUCUAAUGCUUCAGCAGUGCCGAUUACCGUCGGUAUAGCAUUUACUAACAUCAAAAACAAUGCCAUCUCGUGAUUUUCAUCUGACUUGUUGUCCUCAAGGCUGGACGUUAUCGUAAAAUCGUAUUAUCGUAGUAUUGUAUGUUUUGUGGGAGUGGAAGUGGAAGUGGAUACUGGAACAGUGUAUAAUUAAUUGAAUUCAGUGUUCGAAAGGUGCUGUGGGGACGGAAAAUGUCGAUUUAGUUGUUCACCAGCCACAACUUAUCUCUUCAUACCCCAUGCUUCUUGUG | 27 | 37 | 20.16 | 16.48 | 20 | 35 | 
GS793: dsRNA trigger targeting B. cinerea Bcswd2 (XM_024694665.1); trigger SEQ ID NO 20, RNA 32, reverse complement 44 (nucleic acid, listed as Botrytis cinerea) sense: CUGCGUCACUAUAUGGUCCUAGACUUUUCAACUCCCUCUUUGAAGCUUACACAACAUCUUGGAAAAGUAUAAAAACAACAACAAGAAACAUGUCGUCAACCCCUAUGGCGAUAGACUCUCCAUUAGGUGCGAAUGGUACUUCCAUGUUGAAAGCAAACGGAGUCUCAUCAGUCCCACAGACUGGCAAACUGACUGAGAUGAUCUCAUUAUACCAUCCAGUCAAGCUUUUCAAACAUCCUCCGACACCUGCAGACAAAGGGCAAACUCCUCCGAGUUACAACUUUAUUCAGUCUAUCAAUUUCAAUGACAAUGGCAGUCAGCUUAUCACGUCAGAAACUGAUAACACUAUGCAAAUAUAUGAUGUUCUCGAAGGAAGACAUUCAAAAAUGAAUAUUAGUGCCAAGUAUGGUUGUAACCAUGCAAUGUUUGGCCAUGCUGAACAUUGUAUAAUCCAUUCUAGUACCAAAAAAGACCACAA antisense: UUGUGGUCUUUUUUGGUACUAGAAUGGAUUAUACAAUGUUCAGCAUGGCCAAACAUUGCAUGGUUACAACCAUACUUGGCACUAAUAUUCAUUUUUGAAUGUCUUCCUUCGAGAACAUCAUAUAUUUGCAUAGUGUUAUCAGUUUCUGACGUGAUAAGCUGACUGCCAUUGUCAUUGAAAUUGAUAGACUGAAUAAAGUUGUAACUCGGAGGAGUUUGCCCUUUGUCUGCAGGUGUCGGAGGAUGUUUGAAAAGCUUGACUGGAUGGUAUAAUGAGAUCAUCUCAGUCAGUUUGCCAGUCUGUGGGACUGAUGAGACUCCGUUUGCUUUCAACAUGGAAGUACCAUUCGCACCUAAUGGAGAGUCUAUCGCCAUAGGGGUUGACGACAUGUUUCUUGUUGUUGUUUUUAUACUUUUCCAAGAUGUUGUGUAAGCUUCAAAGAGGGAGUUGAAAAGUCUAGGACCAUAUAGUGACGCAG |  |  | 55.26 | 57.69 | 13 | 36 | 24
